Laboratory results reported in US6307020A, “Intracellular antifreeze polypeptides and nucleic acids” (HSC Research and Development Ltd. Partnership, priority 1998, dated 2001).

Legend:
[1] = Antifreeze activity measured as thermal hysteresis with a Clifton Nanoliter Osmometer; type: physicochemical
Description: The preferred method of measuring the activity of a skin type AFP is to measure the thermal hysteresis (the difference between the melting and freezing temperatures) of an aqueous solution containing the AFP. This can be done by performing a serial dilution of the AFP-containing aqueous solution, followed by cooling the solution gradually and monitoring the freezing point of the solution. Typically, this is performed using commercially available equipment designed specifically for this purpose, such as nanoliter osmoineter. See, Kao et al. (1986) Can. J. Zool. 64:578-582. A preferred osmometer is the Clifton Nanoliter Osmoineter (Clifton Technical Physics, Hartford, N.Y.). Instructions for using the equipment to perform thermal hysteresis are available from the manufacturer. […]
The activity of a skin-type AFP can be measured using a nanoliter osmometer. Antifreeze activity was measured as thermal hysteresis (the difference between the melting and freezing temperatures), essentially following the procedure of Chakrabartty et al. (1989) J. Biol. Chem. 264: 11313-11316. Proteins were dissolved in 0.1 M NH4 HCO3 and their concentrations were determined by duplicate amino acid analyses. […]
Antifreeze activity was measured as thermal hysteresis (difference between the melting and freezing temperatures) essentially following the procedure of Chakrabartty et al. (1989) J. Biol. Chem. 264, 11307-11312. […]

[2] = Circular dichroism and thermal denaturation of liver and skin AFPs; type: physicochemical; conditions: for Tm (temperature at which fraction helix is 0.5): thermal denaturation 0-60° C., CD
Description: CD spectra were measured using a Jasco J-600 spectropolarimeter. A water-jacketed (0.1 cm) quartz cell was used. Concentrations of peptides were calculated from UV-absorbance at 230 nm (OD230 =6.1 mM/L peptide-bonds). The concentrations of peptides for CD measurement were between 0.1-0.2 mg/ml in 0.1M NH4 HCO3, pH 8.5. Thermal denaturation of the peptides were measured by varying temperatures from 0-60° C. with a 5° C. step gradient. After CD measurement at 60° C., the samples were cooled to 0° C. and the extent of refolding was determined. The mean residue ellipticity at a given wavelength [q]1 was expressed in degree cm^2 dmol^-1. Fraction helix was calculated as described by Greenfield and Fasman (1969) Biochemistry 8, 4108-4116, employing 222 nm instead of 208 nm: [formula]
The ellipticity [q]222^coil of each peptide in 6.0 M guanidine hydrochloride at 25° C. was assumed to represent 0% helix formation, and the ellipticity for [q]222^helix 100% helix formation was calculated from J. T. Yang et al. (1986) Methods in Enzymology 130, 208-269: [q]^n= [q]^.infin. (1-k/n); where n is the chain length and k is a wavelength-dependent factor (at 222 nm k=2.5 and [q].infin.=-37,400 degree cm^2 dmol^-1).

sAFP2: skin-type AFP from winter flounder, MDAPAKAAAA TAAAAKAAAEA TAAAAAKAAAA TKAGAAR, SEQ ID NO: 18; identical to protein encoded by F2 (MDAPAKAAAATAAAAKAAAEATAAAAAKAAAATKAGAAR)
antifreeze activity (thermal hysteresis) compared with serum AFP HPLC-6 ([1]; dilutions 0.1 to 7.0 mM in 0.1 M NH4HCO3, FIG. 3): less than half of that observed for HPLC-6
antifreeze activity of GST-sAFP2 fusion protein compared with sAFP2 ([1]; nanoliter osmometer, 0.1 M NH4HCO3): indistinguishable
Fraction Helix ([2]; 0° C., pH 8.5, 0.1M NH4HCO3, calculated from ellipticity at 222 nm): 0.61
helical content by circular dichroism ([2]; at 0° C.): 61%
[Θ]222 mean residue ellipticity ([2]; measured at 0° C., pH 8.5, 0.1M NH4HCO3): -21,677 deg cm^2 dmol^-1
Tm (temperature at which fraction helix is 0.5) [2]: 12 °C
Tm (temperature at which fraction helix is 0.5) ([2]; listed as SAFP2): 12.0 °C
